Experimental data published in publication PMC6728143, “Distinct mechanisms of microRNA sorting into cancer cell-derived extracellular vesicle subtypes”.

How the values were obtained:
Lupus La protein (La) [1] = target: T1, Lupus La protein (La) (Homo sapiens, UniProt P05455 1-408); assay: EMSA; EMSA: 1 nM RNA, La 250 pM-2 uM; 25 mM Tris pH 8, 100 mM KCl, 1.5 mM MgCl2, 0.2 mM EGTA, 0.05% NP-40, 50 ug/ml heparin; 30 C 30 min, then ice 10 min; 6% gel at 4 C; Hill fit; details: protein: recombinant; tags: N-terminal 6xHis; label: 5' IRDye800CW
T1 sequence: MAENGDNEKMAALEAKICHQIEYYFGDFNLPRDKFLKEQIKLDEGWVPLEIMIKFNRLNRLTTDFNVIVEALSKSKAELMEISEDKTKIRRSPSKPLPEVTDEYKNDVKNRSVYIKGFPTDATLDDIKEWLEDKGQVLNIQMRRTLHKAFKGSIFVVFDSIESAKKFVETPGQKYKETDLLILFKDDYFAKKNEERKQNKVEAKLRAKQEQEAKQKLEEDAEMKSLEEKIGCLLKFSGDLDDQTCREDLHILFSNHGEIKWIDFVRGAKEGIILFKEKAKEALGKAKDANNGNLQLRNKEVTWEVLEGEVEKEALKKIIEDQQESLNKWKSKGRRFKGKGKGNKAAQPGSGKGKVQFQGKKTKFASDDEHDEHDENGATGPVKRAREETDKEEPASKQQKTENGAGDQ

Lupus La protein (La) [2] = target: T1, Lupus La protein (La); assay: as above; details: protein: recombinant; tags: N-terminal 6xHis; label: 5' IRDye800CW; remark: listed apart in the source

## ACACGUGUGACAAUGGUGUUUG (ssRNA) [miR-122 5'mut]
Lupus La protein (La) [1]
  binding signal: ~10 fold lower affinity than WT

## UGGAGUGUGACAAUGGUGAAAG (ssRNA) [miR-122 3'mut]
Lupus La protein (La) [2]
  Kd: 538 nM

## UGGAGUGUGACAAUGGUGUUUG (ssRNA) [miR-122-5p WT]
Lupus La protein (La) [2]
  Kd: 4.8 nM
